According to patent publication US20200157212A1 (Pfizer, published 2020):
Where a chain is given by its changes, count along the chain named.

T1: Terbium (Tb) labeled-SNAP tagged ROBO2 expressed on HEK293 cells (Homo sapiens (Human), UniProt Q9HCK4 22-1378, terbium label on the SNAP tag)
T1 construct: also called Tb-labeled ROBO2 cells; ROBO2 expressing cells; not shown: SNAP tag
T1 sequence: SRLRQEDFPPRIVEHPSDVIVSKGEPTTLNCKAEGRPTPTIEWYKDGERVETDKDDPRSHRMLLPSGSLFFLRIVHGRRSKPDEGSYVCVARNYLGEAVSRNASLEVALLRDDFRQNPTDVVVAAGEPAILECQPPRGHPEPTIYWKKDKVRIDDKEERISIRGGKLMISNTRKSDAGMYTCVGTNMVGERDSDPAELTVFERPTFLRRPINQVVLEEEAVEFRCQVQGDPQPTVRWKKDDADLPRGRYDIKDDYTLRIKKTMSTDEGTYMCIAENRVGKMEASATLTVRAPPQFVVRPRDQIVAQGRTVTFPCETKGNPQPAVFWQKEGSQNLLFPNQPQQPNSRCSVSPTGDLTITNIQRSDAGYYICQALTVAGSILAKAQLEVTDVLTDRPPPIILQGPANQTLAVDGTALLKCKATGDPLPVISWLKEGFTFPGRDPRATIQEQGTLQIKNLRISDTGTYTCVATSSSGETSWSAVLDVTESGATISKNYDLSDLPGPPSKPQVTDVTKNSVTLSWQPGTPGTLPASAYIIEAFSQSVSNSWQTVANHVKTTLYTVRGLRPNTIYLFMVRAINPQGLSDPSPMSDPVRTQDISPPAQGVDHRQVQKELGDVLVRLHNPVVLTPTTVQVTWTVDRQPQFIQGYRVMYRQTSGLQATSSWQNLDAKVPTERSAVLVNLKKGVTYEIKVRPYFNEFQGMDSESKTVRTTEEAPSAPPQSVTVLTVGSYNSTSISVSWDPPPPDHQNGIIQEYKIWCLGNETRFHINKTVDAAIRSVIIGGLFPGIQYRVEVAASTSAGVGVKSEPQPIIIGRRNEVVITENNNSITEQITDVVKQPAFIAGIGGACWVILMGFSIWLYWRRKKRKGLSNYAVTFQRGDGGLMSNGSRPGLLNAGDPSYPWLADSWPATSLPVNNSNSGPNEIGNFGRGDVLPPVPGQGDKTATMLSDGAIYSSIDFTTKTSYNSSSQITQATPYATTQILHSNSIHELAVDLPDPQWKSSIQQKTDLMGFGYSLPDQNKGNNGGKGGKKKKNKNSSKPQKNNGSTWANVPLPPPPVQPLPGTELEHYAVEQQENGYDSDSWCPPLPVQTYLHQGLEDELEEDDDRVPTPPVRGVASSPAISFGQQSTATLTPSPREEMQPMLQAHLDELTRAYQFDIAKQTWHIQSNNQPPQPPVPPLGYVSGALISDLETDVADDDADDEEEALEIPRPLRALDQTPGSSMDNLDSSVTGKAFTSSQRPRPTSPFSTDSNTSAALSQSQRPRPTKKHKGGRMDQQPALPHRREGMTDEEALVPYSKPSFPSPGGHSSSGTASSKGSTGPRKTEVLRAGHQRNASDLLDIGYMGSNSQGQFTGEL

T2: Human ROBO2 Ig1-Ig2-His (human, UniProt Q9HCK4 31-220)
T2 construct: the His tag is named only in the SPR paragraphs; the Octet and ELISA paragraphs print 'ROBO2 Ig1-Ig2' without a tag; also called ROBO2 Ig1-2; Human ROBO2 Ig 1,2
T2 sequence: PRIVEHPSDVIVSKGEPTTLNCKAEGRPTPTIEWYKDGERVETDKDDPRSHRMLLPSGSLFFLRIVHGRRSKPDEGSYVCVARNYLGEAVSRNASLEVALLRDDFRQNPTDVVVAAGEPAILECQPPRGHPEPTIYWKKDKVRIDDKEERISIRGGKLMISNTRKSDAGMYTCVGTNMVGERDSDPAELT

B1: Abcs35-A (antibody, human IgG1, kappa)
heavy: EVQLVQSGAEVKKPGASVKVSCKASGYTFTGYYMHWVRQAPGQGLEWMGWINPKNGDTEFPQKFQGRVTMTRDTSITTAYMDLSRLRSDDTAVYYCARESGDDAFDIWGQGTMVTVSSASTKGPSVFPLAPSSKSTSGGTAALGCLVKDYFPEPVTVSWNSGALTSGVHTFPAVLQSSGLYSLSSVVTVPSSSLGTQTYICNVNHKPSNTKVDKKVEPKSCDKTHTCPPCPAPEAAGAPSVFLFPPKPKDTLMISRTPEVTCVVVDVSHEDPEVKFNWYVDGVEVHNAKTKPREEQYNSTYRVVSVLTVLHQDWLNGKEYKCKVSNKALPAPIEKTISKAKGQPREPQVYTLPPSREEMTKNQVSLTCLVKGFYPSDIAVEWESNGQPENNYKTTPPVLDSDGSFFLYSKLTVDKSRWQQGNVFSCSVMHEALHNHYTQKSLSLSPGK
light: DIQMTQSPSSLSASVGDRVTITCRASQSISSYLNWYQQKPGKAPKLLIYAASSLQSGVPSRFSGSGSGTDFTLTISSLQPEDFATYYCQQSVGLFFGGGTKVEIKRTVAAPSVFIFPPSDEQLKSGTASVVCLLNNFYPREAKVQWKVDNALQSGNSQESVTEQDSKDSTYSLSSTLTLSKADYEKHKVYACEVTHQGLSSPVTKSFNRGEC
notes: germlined variant of Abcs35; also called Abcs-A
B2: Abcs35-B (antibody, human IgG1, kappa)
heavy: B1 heavy with T77S
light: DIVMTQSPSSLSASVGDRVTITCRASQSISSYLNWYQQKPGKAPKLLIYAASSLQSGVPSRFSGSGSGTDFTLTISSLQPEDFATYYCQQSVGLFFGGGTKVEIKRTVAAPSVFIFPPSDEQLKSGTASVVCLLNNFYPREAKVQWKVDNALQSGNSQESVTEQDSKDSTYSLSSTLTLSKADYEKHKVYACEVTHQGLSSPVTKSFNRGEC
notes: germlined variant of Abcs35
B3: Abcs35-C (antibody, human IgG1, kappa)
heavy: B1 heavy with D82E
light: B2 light
notes: germlined variant of Abcs35
B4: Abcs35-D (antibody, human IgG1, kappa)
heavy: B1 heavy with T77S, D82E
light: B2 light
notes: germlined variant of Abcs35
B5: Abcs35-E (antibody, human IgG1, kappa)
heavy: B1 heavy with E1Q
light: B2 light
notes: germlined variant of Abcs35; also called Abcs35-eE
B6: Abcs35-F (antibody, human IgG1, kappa)
heavy: B1 heavy with E1Q, T77S
light: B2 light
notes: germlined variant of Abcs35
B7: Abcs35-G (antibody, human IgG1, kappa)
heavy: B1 heavy with E1Q, D82E
light: B2 light
notes: germlined variant of Abcs35
B8: Abcs35-H (antibody, human IgG1, kappa)
heavy: B1 heavy with E1Q, T77S, D82E
light: B2 light
notes: germlined variant of Abcs35
B9: Abcs35-I (antibody, human IgG1, kappa)
heavy: B1 heavy with T77S
light: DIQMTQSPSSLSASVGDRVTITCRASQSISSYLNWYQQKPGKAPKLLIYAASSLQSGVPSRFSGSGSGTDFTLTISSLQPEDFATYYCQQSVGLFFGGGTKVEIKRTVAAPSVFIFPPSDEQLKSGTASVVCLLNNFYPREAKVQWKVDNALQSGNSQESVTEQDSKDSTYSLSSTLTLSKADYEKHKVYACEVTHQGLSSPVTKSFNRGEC
notes: germlined variant of Abcs35
B10: Abcs35-K (antibody, human IgG1, kappa)
heavy: B1 heavy with T77S, D82E
light: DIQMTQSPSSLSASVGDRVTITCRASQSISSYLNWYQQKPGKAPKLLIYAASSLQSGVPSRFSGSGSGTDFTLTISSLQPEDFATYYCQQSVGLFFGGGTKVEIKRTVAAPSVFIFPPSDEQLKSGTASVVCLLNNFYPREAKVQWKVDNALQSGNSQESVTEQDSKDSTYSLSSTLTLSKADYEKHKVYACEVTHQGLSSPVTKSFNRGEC
notes: germlined variant of Abcs35
B11: Abcs35-L (antibody, human IgG1, kappa)
heavy: B1 heavy with E1Q
light: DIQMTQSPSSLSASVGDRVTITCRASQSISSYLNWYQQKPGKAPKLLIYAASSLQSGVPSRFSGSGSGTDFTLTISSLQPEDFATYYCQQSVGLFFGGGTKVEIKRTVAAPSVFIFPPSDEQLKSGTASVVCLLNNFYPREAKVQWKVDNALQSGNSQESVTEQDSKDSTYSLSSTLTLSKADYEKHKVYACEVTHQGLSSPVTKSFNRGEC
notes: germlined variant of Abcs35
B12: Abcs35-M (antibody, human IgG1, kappa)
heavy: B1 heavy with E1Q, T77S
light: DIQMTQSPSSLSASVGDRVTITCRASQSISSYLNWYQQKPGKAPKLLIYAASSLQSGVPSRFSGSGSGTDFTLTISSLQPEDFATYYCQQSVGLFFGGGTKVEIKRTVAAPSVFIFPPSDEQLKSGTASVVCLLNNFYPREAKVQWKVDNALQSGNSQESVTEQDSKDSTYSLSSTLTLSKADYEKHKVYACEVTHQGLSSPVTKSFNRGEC
notes: germlined variant of Abcs35
B13: Abcs35-N (antibody, human IgG1, kappa)
heavy: B1 heavy with E1Q, D82E
light: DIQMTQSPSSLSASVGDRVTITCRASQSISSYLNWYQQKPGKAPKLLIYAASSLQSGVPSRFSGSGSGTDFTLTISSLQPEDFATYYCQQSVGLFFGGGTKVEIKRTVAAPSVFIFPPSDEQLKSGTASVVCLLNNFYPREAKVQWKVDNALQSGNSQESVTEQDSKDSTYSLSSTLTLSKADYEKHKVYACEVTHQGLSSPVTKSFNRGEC
notes: germlined variant of Abcs35
B14: Abcs35-O (antibody, human IgG1, kappa)
heavy: B1 heavy with E1Q, T77S, D82E
light: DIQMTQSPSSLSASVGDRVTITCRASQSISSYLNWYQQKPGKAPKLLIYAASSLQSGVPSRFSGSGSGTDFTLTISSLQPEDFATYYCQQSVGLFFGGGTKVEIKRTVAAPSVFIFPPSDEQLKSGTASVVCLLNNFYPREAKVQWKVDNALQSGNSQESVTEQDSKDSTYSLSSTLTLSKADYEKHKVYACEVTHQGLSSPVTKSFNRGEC
notes: germlined variant of Abcs35

Legend:
[1] = biological target: T1, Terbium (Tb) labeled-SNAP tagged ROBO2 …; assay: HTRF competition, competitor d2-SLIT2-N, ROBO2 HEK293 cells
Experimental: A ROBO2-SLIT2-N homogenous time resolved fluorescence (HTRF) assay was used to identify antibodies that were capable of blocking SLIT2-N binding to ROBO2. In this assay, terbium (Tb) labeled-SNAP tagged ROBO2 expressing HEK293 cells were incubated with 5 nM d2-labeled SLIT-2N in the presence of 1 nM anti-ROBO2 antibodies for 1 hour. After incubation, fluorescence at 665 nm and 620 nm was measured on an Envision multilabel plate reader. […] Maximal signal was defined as the HTRF ratio of Tb-labeled ROBO2 cells with d2-labeled SLIT2-N in the absence of antibody, the minimum signal was defined as the HTRF ratio of Tb-labeled ROBO2 expressing HEK293 cells only. One nanomolar (nM) parental antibody, 93H2, was unable to block the HTRF assay, therefore this concentration was selected to identify clones with a higher affinity than 93H2 (Table 2, HTRF Ratio column). […] Antibodies derived from chain (Abcs series) or CDR shuffling (CTIR-2 series) were evaluated in 11-point, 5-fold dilution series with a top concentration of 1500 nM (Table 2 HTRF IC₅₀).
Neutralization of SLIT2-N binding to ROBO2 was assessed ROBO2:SLIT2-N homogenous time resolved fluorescence (HTRF) assay as described in Example 2. Briefly the HTRF assay was performed as follows: terbium (Tb) labeled-SNAP tagged ROBO2 expressing HEK293 cells were incubated with d2-labeled SLIT-2N in the presence of anti-ROBO2 antibodies for 1 hour. After incubation, fluorescence at 665 nm and 620 nm was measured on an Envision multi-label plate reader. […] Maximal signal was defined as the HTRF ratio of Tb-labeled ROBO2 cells with d2-labeled SLIT2-N in the absence of antibody, the minimum signal was defined as the HTRF ratio of Tb-labeled ROBO2 expressing HEK293 cells only.

Human ROBO2 Ig1-Ig2-His = biological target: T2, Human ROBO2 Ig1-Ig2-His; assay: SPR, antibody on CM5 chip, ROBO2 Ig1-Ig2-His
Experimental: Based upon several criteria, Abcs25 and Abcs35 were selected for further characterization. Using flow cytometry, improvement in the binding EC₅₀ to human ROBO2 relative to the parental 93H2 was evaluated. Starting at 6.7 nM, 11-point, 3-fold dilution series were made for each antibody and used to stain HEK293 overexpressing human ROBO2 as described above for the ROBO2 fold selectivity (Example 2). […] In addition to measuring improved binding to human ROBO2, it was important to ensure that high affinity binding to both cynomolgus monkey ROBO2 and rat ROBO2 was maintained. Using HEK293 cells overexpressing either cynomolgus monkey ROBO2 or rat ROBO2, the relative dose-dependent binding of 93H2, Abcs25 and Abcs35 was evaluated as described above. High affinity binding to both cynomolgus monkey and rat ROBO2 was maintained in Abcs25 and Abcs35 (Table 4). […] Briefly, Abcs35 was immobilized to 300 resonance units (RU) on a CM5 chip. Association of ROBO2 Ig1-Ig2-His (ROBO2) was measured over 5 minutes and dissociation was followed for a period of 10 minutes.
Affinity was measured by standard SPR methods as described in Example 3. Briefly, antibodies were immobilized to a specific measure of resonance units (RU) on a CM5 chip. Association of ROBO2 Ig1-Ig2-His (ROBO2) and dissociation will be followed for a period of time.

| Binder | IC50 [1] | Kd (Human ROBO2 Ig1-Ig2-His) |
| --- | --- | --- |
| B1 | 0.0728 nM | 0.099 nM |
| B2 | 0.0765 nM | 0.123 nM |
| B3 | 0.074 nM | 0.0821 nM |
| B4 | 0.0639 nM | 0.125 nM |
| B5 | 0.0651 nM | 0.128 nM |
| B6 | 0.0766 nM | 0.194 nM |
| B7 | 0.0754 nM | 0.131 nM |
| B8 | 0.0829 nM | 0.194 nM |
| B9 | 0.0745 nM | 0.145 nM |
| B10 | 0.0752 nM | 0.142 nM |
| B11 | 0.0796 nM | 0.149 nM |
| B12 | 0.0591 nM | 0.217 nM |
| B13 | 0.0903 nM | 0.146 nM |
| B14 | 0.0624 nM | 0.217 nM |
